Measurements reported in the supplement of paper PMC7125110.
± gives the standard error. For some of these results: Fewer inactive variants are shown than the library holds.

B1: glmS ribozyme (parent)
chain: AUAAAAGCGCCAGAACUACAGAAAUGUAGUUGACGAGGAGGAGGUUUAUCGAAUUUUCGGCGGAUGCCUCCAAA

Tests used:
Conditions in all cases: with glucosamine-6-phosphate
glucosamine-6-phosphate [1] = variants of: B1; assay: self-cleavage kobs at 40 uM GlcN6P; higher = faster cleavage; RNA array
Outline: (§1)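 Tiles bearing barcoded ribozyme variants, transcribed in situ by E. coli RNA polymerase on sequenced MiSeq chips, were imaged over ~14 h at 37 °C using a hybridised Cy3 probe. Glucosamine-6-phosphate was supplied at 40 μM to 10 mM in HEPES/KCl/Mg(OAc)2 buffer. kobs came from one- or two-exponential decay fits to normalised per-tile medians, and weighted Michaelis–Menten fits then provided kcat and KM.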

glucosamine-6-phosphate [2] = variants of: B1; assay: self-cleavage kobs at 10000 uM GlcN6P; higher = faster cleavage; RNA array
Outline: as §1

glucosamine-6-phosphate [3] = variants of: B1; assay: kcat; higher = faster cleavage; RNA array
Outline: as §1

glucosamine-6-phosphate [4] = variants of: B1; assay: self-cleavage kobs at 640 uM GlcN6P; higher = faster cleavage; RNA array
Outline: as §1

glucosamine-6-phosphate [5] = variants of: B1; assay: self-cleavage kobs at 2500 uM GlcN6P; higher = faster cleavage; RNA array
Outline: as §1

glucosamine-6-phosphate [6] = variants of: B1; assay: KM; higher = weaker cofactor use; RNA array
Outline: as §1

glucosamine-6-phosphate [7] = variants of: B1; assay: self-cleavage kobs at 160 uM GlcN6P; higher = faster cleavage; RNA array
Outline: as §1

Row | Variant | self-cleavage kobs at 40 uM GlcN6P (glucosamine-6-phosphate [1]) | self-cleavage kobs at 10000 uM GlcN6P (glucosamine-6-phosphate [2]) | kcat (glucosamine-6-phosphate [3]) | self-cleavage kobs at 640 uM GlcN6P (glucosamine-6-phosphate [4]) | self-cleavage kobs at 2500 uM GlcN6P (glucosamine-6-phosphate [5]) | KM (glucosamine-6-phosphate [6]) | self-cleavage kobs at 160 uM GlcN6P (glucosamine-6-phosphate [7])
1 | A6G A12U C61U | < 1e-05 s⁻¹ | < 1e-05 s⁻¹ |  |  |  |  | 
2 | A6G A52U C61G | < 1e-05 s⁻¹ |  |  |  |  |  | 
3 | A64G G66C | 4.68e-05 ± 1.7e-05 s⁻¹ | 0.0027 ± 0.00051 s⁻¹ | 0.00291 ± 0.001 s⁻¹ | 0.00057 ± 0.00011 s⁻¹ | 0.00103 ± 0.00022 s⁻¹ |  | 
4 | A64G G66A | 0.000837 ± 9.3e-05 s⁻¹ | 0.0215 ± 0.0052 s⁻¹ | 0.0158 ± 0.0059 s⁻¹ | 0.00554 ± 0.0008 s⁻¹ | 0.0124 ± 0.0025 s⁻¹ | 936 ± 460 µM | 0.00197 ± 0.00028 s⁻¹
5 | A6G A42C C71U | < 1e-05 s⁻¹ |  |  | < 1e-05 s⁻¹ |  |  | 
6 | U65C C70U |  | 0.000647 ± 0.0001 s⁻¹ | 0.000844 ± 0.0001 s⁻¹ | 0.000169 ± 2.7e-05 s⁻¹ | 0.000379 ± 7.6e-05 s⁻¹ | 2930 ± 550 µM | 3.71e-05 ± 1e-05 s⁻¹
7 | C68U U69G C70U |  |  | 1.34e-05 ± 6e-06 s⁻¹ |  |  |  | 
8 | A6G C16G G29C A39G G43C U47G G51U C61A | < 1e-05 s⁻¹ | < 1e-05 s⁻¹ |  |  |  |  | 
9 | A64C U65A | < 1e-05 s⁻¹ |  | 2.96e-05 ± 5.1e-06 s⁻¹ |  |  |  | < 1e-05 s⁻¹
10 | G66U C70A |  | 6.04e-05 ± 2e-05 s⁻¹ | 7.35e-05 ± 1.3e-05 s⁻¹ | 0.000101 ± 4.5e-05 s⁻¹ | 8.96e-05 ± 3e-05 s⁻¹ |  | 
11 | A64U U69C |  | 4.48e-05 ± 1.3e-05 s⁻¹ | 5.01e-05 ± 2.7e-06 s⁻¹ |  |  | 1050 ± 310 µM | 
12 | A64U U69G |  |  | 4.17e-05 ± 1.2e-05 s⁻¹ |  | 5.01e-05 ± 1.9e-05 s⁻¹ |  | 4.51e-05 ± 1.8e-05 s⁻¹
13 | A6G A52U | < 1e-05 s⁻¹ |  |  | < 1e-05 s⁻¹ |  |  | < 1e-05 s⁻¹
14 | C16U G66A | 0.000448 ± 9.7e-05 s⁻¹ | 0.0329 ± 0.014 s⁻¹ |  | 0.00417 ± 0.00068 s⁻¹ | 0.00873 ± 0.0019 s⁻¹ | 1520 ± 640 µM | 0.00133 ± 0.00023 s⁻¹
15 | G29A A64U |  |  |  |  |  | 593 ± 20 µM | 
16 | A6G A36C G41U | < 1e-05 s⁻¹ | < 1e-05 s⁻¹ |  | < 1e-05 s⁻¹ |  |  | 
17 | C68A C71U |  |  | 1.62e-05 ± 4.6e-06 s⁻¹ |  | 2.17e-05 ± 9.8e-06 s⁻¹ |  | 
18 | C68A C71G |  |  | 2.77e-05 ± 1e-05 s⁻¹ |  | 3.63e-05 ± 9.6e-06 s⁻¹ |  | 3.29e-05 ± 1e-05 s⁻¹
19 | A6C C16A | < 1e-05 s⁻¹ |  |  | < 1e-05 s⁻¹ | < 1e-05 s⁻¹ |  | < 1e-05 s⁻¹
20 | A6C G7C C11G U55G | < 1e-05 s⁻¹ | < 1e-05 s⁻¹ |  |  |  |  | 
21 | C67A C68A |  | 3.61e-05 ± 9.6e-06 s⁻¹ | 3.56e-05 ± 6.8e-06 s⁻¹ | 5.08e-05 ± 1.2e-05 s⁻¹ | 2.46e-05 ± 1e-05 s⁻¹ |  | 
